Paper PMC5111854

What was measured:
[1] = biological target: Cas5c (Desulfovibrio vulgaris str. Hildenborough); assay: ITC
[2] = biological target: Cas7 (Desulfovibrio vulgaris str. Hildenborough); assay: ITC

| Kd [1] | dH [1] | stoichiometry N [1] | Kd [2] | dH [2] | Substance |
| --- | --- | --- | --- | --- | --- |
| 3.8 µM | 5100 cal/mol | 0.59 |  |  | Cas7 (natural protein) |
| 3.9 µM | 4800 cal/mol | 0.57 | 6 µM | 5200 cal/mol | Cas8c (natural protein) |
